How the values were obtained:
APRIL [1] = target: T1, APRIL (Mus musculus, UniProt Q9D777); assay: NNS phage library of TACI CRD2 (positions 78, 79, 84, 92), APRIL selection; assay type: binding, murine; settings: amino acid at position F78; after 3 rounds of sorting; large F′ = favorable
T1 construct: made in house
T1 sequence (Q9D777 105-241): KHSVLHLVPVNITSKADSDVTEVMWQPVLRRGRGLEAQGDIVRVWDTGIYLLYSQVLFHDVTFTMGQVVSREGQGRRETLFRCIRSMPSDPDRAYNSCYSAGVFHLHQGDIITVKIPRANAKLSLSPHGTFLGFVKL
Description: (§1) NNS library construction and sorting.
(§2) This new phage library was subjected to sorting against either BAFF, APRIL or the display target antibody. After 3 rounds of sorting, approximately 48 clones were picked from each selection and the DNA sequences of the phage clones were determined. […] The normalized F′ value corrects for display bias and is calculated as the percent occurrence to percent degeneracy ratio for ligand selection divided by the percent occurrence to percent degeneracy ratio for display efficiency. Percent occurrence is calculated by dividing the number of times a particular amino acid appeared at a particular position by the total number of amino acids sequenced at that position followed by multiplying by 100. Percent degeneracy is calculated by dividing the degeneracy in code for a particular amino acid divided by the total degeneracy possible at that position followed by multiplying by 100 (e.g., if only A, G and I were selected, total degeneracy possible would be 5).

BAFF [2] = target: T2, BAFF (Homo sapiens, UniProt Q9Y275); assay: NNS phage library of TACI CRD2 (positions 78, 79, 84, 92), BAFF selection; assay type: binding; settings: amino acid at position F78; after 3 rounds of sorting; large F′ = favorable
T2 construct: made in house
Description: as §1, §2

BAFF [3] = target: T2, BAFF; assay: Competitive ELISA, BAFF; assay type: binding; settings: data not shown
APRIL [4] = target: T1, APRIL; assay: Competitive ELISA, APRIL; assay type: binding, murine; settings: data not shown
BAFF [5] = target: T2, BAFF; assay: Competitive surface plasmon resonance, BAFF binding to immobilized BCMA-Fc; settings: competition with immobilized BCMA-Fc
Text: Surface plasmon resonance (SPR) measurements on a BIAcore 3000 instrument (Pharmacia Biosensor) were used to measure binding affinities of receptors to immobilized APRIL and BAFF by competition binding. […] In these experiments, receptors in solution competed for binding of ligand in solution at room temperature with immobilized BCMA-Fc. BCMA-Fc was coupled to flow cell 2 of a CM4 sensor chip, using the amine coupling protocol supplied by the manufacturer, at a high density (4500 resonance units) so that the initial rate of binding was linearly dependent on the concentration of free ligand. In all experiments flow cell 1 was ethanolamine-blocked and used as the reference cell. Washing with 10 mM HCl regenerated flow cells between sample injections. In order to determine the ligand concentration necessary to obtain the optimal for competition experiments, a preliminary binding study was performed for each ligand where two-fold dilutions of the ligand ranging from 400 nM to 6.25 nM were injected over the BCMA-Fc surface. The concentration of ligand that provided a slope of about 1 for the initial on-rate of the observed sensorgrams was selected as the fixed concentration to be used in the competition experiments. In all experiments where BAFE was the ligand, the buffer used was composed of 10 mM HEPES, pH 7.2, 150 mM NaCl, and 0.005% Tween-20. In all experiments where TRX-APRIL was the ligand selected, the buffer was composed of 20 mM Tris-HCl, pH 8.0, 200 mM NaCl, and 0.005% Tween-20. […] Samples were then passed over the BCMA-Fc-coupled surface. A linear fit of the initial on-rate of the observed sensorgrams was used to calculate the binding rate (V). The IC50 values were calculated using a four-parameter curve fit (y=((m1−m4)/(1+(m0/m3)̂m2))+m4) of the initial binding rates for the receptor/control (Vi/Vo) as a function of receptor concentration.

APRIL [6] = target: T1, APRIL; assay: Competitive surface plasmon resonance, APRIL binding to immobilized BCMA-Fc; set-up: species or system murine; settings: competition with immobilized BCMA-Fc
Text: Surface plasmon resonance (SPR) measurements on a BIAcore 3000 instrument (Pharmacia Biosensor) were used to measure binding affinities of receptors to immobilized APRIL and BAFF by competition binding. […] In these experiments, receptors in solution competed for binding of ligand in solution at room temperature with immobilized BCMA-Fc. BCMA-Fc was coupled to flow cell 2 of a CM4 sensor chip, using the amine coupling protocol supplied by the manufacturer, at a high density (4500 resonance units) so that the initial rate of binding was linearly dependent on the concentration of free ligand. In all experiments flow cell 1 was ethanolamine-blocked and used as the reference cell. Washing with 10 mM HCl regenerated flow cells between sample injections. In order to determine the ligand concentration necessary to obtain the optimal for competition experiments, a preliminary binding study was performed for each ligand where two-fold dilutions of the ligand ranging from 400 nM to 6.25 nM were injected over the BCMA-Fc surface. […] The IC50 values were calculated using a four-parameter curve fit (y=((m1−m4)/(1+(m0/m3)̂m2))+m4) of the initial binding rates for the receptor/control (Vi/Vo) as a function of receptor concentration.

T2 sequence (Q9Y275 82-285 limits assumed): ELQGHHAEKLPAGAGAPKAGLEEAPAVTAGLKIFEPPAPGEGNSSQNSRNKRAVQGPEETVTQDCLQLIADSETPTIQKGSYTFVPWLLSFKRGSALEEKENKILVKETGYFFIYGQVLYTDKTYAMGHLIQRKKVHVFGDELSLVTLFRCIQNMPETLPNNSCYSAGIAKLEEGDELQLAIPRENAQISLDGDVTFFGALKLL

Substance: F78F: phage-displayed TACI CRD2, wild-type F retained at position 78 (NNS library) (SLSCRKEQGKFYDHLLRDCISCASICGQHPKQCAYFCENKLR; CRD2 phage-displayed; UniProt O14836 68-109, looked up, fragment)
- F′ APRIL F78 (APRIL [1]): 2
- F′ BAFF F78 (BAFF [2]): 3

Substance: TACI_d2: second cysteine-rich domain (CRD2, residues 68-109) of TACI, with four additional residues (GSPW) at the N-terminus (GSPWSLSCRKEQGKFYDHLLRDCISCASICGQHPKQCAYFCENKLR)
- binding to BAFF, in words (BAFF [3]): sufficient for high-affinity binding
- binding to APRIL, in words (APRIL [4]): sufficient for high-affinity binding

Substance: TACI CRD1 Loop Swap: human TACI CRD1 (R32-R67) with residues NHQSQRT substituted by GQHPKQ of hTACI CRD2 (RSCPEEQYWDPLLGTCMSCKTICGQHPKQCAAFCR)
- affinity for BAFF, comparison in words (BAFF [5]): increased TACI CRD1 affinity
- affinity for APRIL, comparison in words (APRIL [6]): increased TACI CRD1 affinity

Substance: TACI_d1: first CRD of TACI (residues 32-67), expressed in E. coli (RSCPEEQYWDPLLGTCMSCKTICNHQSQRTCAAFCR)
- IC50 for BAFF, in words (BAFF [5]): in the micromolar range
- affinity for BAFF, comparison in words (BAFF [5]): an interaction was observed
- IC50 for APRIL, in words (APRIL [6]): in the micromolar range
